In the assay the target is T1, HA-tagged GIPC1 (GAIP interacting protein C terminus) (UniProt O14908 1-333).
T1 construct: GIPC1, scaffold protein with a PDZ domain; The plasmid list begins with 'Human NRP1WT, HA-tagged GIPC1, ...'; it is not clear whether 'Human' also covers GIPC1; also called GIPC1 (HA); source: HEK293T, transfected (pcDNA 3.1 TOPO, FuGENE6), in lysate
T1 sequence (looked up): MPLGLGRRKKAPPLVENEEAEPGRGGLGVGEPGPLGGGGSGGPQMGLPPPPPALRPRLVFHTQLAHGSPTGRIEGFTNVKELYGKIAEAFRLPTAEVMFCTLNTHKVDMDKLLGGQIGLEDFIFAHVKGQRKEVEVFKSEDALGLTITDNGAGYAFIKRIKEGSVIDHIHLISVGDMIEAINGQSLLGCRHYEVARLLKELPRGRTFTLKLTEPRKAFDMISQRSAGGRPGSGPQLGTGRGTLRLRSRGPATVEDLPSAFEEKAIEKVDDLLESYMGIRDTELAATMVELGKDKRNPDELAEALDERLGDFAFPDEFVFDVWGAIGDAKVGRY
Description: co-IP; Scrambled or Targeted peptide mixed with lysate of HEK293T overexpressing HA-GIPC1, 1 h rotation at 4°C; co-immunoprecipitated with GIPC1; blot with anti-GFP. The settings on record: one partner purified.

B1: TAT-EGFP-peptide 1 (STLTASEV), the Targeted peptide (peptide)
chain: GSTLTASEV
notes: Detected with anti-GFP; also called Target peptide; not shown: EGFP, N-terminal, kept
As for B1, the “fold binding over the Scrambled peptide” value came out at 3 fold.

(Values after publication PMC4582117, “VEGF-A/NRP1 stimulates GIPC1 and Syx complex formation to promote RhoA activation and proliferation in skin cancer cells” (Biology Open, 2015).)
